Some results are limits rather than exact numbers.

Common to all, as to assay: cell_activity
Series [1] has as its system Type I-F3a CAST (TniQ-Cascade + TnsABC) (Vibrio cholerae HE-45).
Series [2] has as its system Type I-F3a CAST with Cas6 R117A Cas6 R117A (Vibrio cholerae HE-45). Particulars: below detection.
Series [3] deals with Type I-F3a CAST with Cas6 R121A Cas6 R121A (Vibrio cholerae HE-45). As to conditions: below detection.
The test system of series [4] is Type I-F3a CAST with Cas6 R125A Cas6 R125A (Vibrio cholerae HE-45). Particulars: below detection.

For the substance “lacZ crRNA, canonical type I-E repeat ; lacZ target”, the relative transposition efficiency (fold of native) in series [1] (printed as ~10-3-fold less efficient than native crRNA) was found to be 0.001.

“lacZ crRNA, native I-F3a CAST repeat ; lacZ target”: the activity was 1.4% in series [1] (transposition efficiency of viable recipients (+/- 0.2), E. coli, conjugation assay, PAM not stated); less than 1e-07 cfu in series [2]; less than 1e-07 cfu in series [3]; less than 1e-07 cfu in series [4].

Values taken from US20250066819.
